Changes are numbered by the printed parent chain. Numbers in names are those of the source.
B1: cyt-ATL1(1–446) N281C (domain or fragment, human, UniProt Q8WXF7 1-446, looked up)
chain: MAKNRRDRNSWGGFSEKTYEWSSEEEEPVKKAGPVQVLIVKDDHSFELDETALNRILLSEAVRDKEVVAVSVAGAFRKGKSFLMDFMLRYMYNQESVDWVGDYNEPLTGFSWRGGSERETTGIQIWSEIFLINKPDGKKVAVLLMDTQGTFDSQSTLRDSATVFALSTMISSIQVYNLSQNVQEDDLQHLQLFTEYGRLAMEETFLKPFQSLIFLVRDWSFPYEFSYGADGGAKFLEKRLKVSGNQHEELQNVRKHIHSCFTNISCFLLPHPGLKVATNPCFDGKLKEIDDEFIKNLKILIPWLLSPESLDIKEINGNKITCRGLVEYFKAYIKIYQGEELPHPKSMLQATAEANNLAAVATAKDTYNKKMEEICGGDKPFLAPNDLQTKHLQLKEESVKLFRGVKKMGGEEFSRRYLQQLESEIDELYIQYIKHNDSKNIFHAAR
modifications: Alexa Fluor 488 (donor) or 647 (acceptor) maleimide on the engineered G-domain cysteine N281C
B2: cyt-ATL1 H435C (domain or fragment, human, UniProt Q8WXF7 1-446, looked up)
chain: B1 chain with C281N, H435C
modifications: Cy3 maleimide on the engineered 3HB cysteine H435C
B3: cyt-ATL2(1–467) S308C (also C59A, C143A, C395N, and C441A) (domain or fragment, human, UniProt Q8NHH9 1-467, looked up)
chain: MAEGDEAARGQQPHQGLWRRRRTSDPSAAVNHVSSTTSLGENYEDDDLVNSDEVMKKPAPVQIVLAHEDDHNFELDEEALEQILLQEHIRDLNIVVVSVAGAFRKGKSFLLDFMLRYMYNKDSQSWIGGNNEPLTGFTWRGGAERETTGIQVWNEVFVIDRPNGTKVAVLLMDTQGAFDSQSTIKDCATVFALSTMTSSVQVYNLSQNIQEDDLQHLQLFTEYGRLAMEEIYQKPFQTLMFLIRDWSYPYEHSYGLEGGKQFLEKRLQVKQNQHEELQNVRKHIHNCFSNLGCFLLPHPGLKVATNPCFDGRLKDIDEDFKRELRNLVPLLLAPENLVEKEISGSKVTCRDLVEYFKAYIKIYQGEELPHPKSMLQATAEANNLAAVAGARDTYNKSMEQVCGGDKPYIAPSDLERKHLDLKEVAIKQFRSVKKMGGDEFARRYQDQLEAEIEETYANFIKHNDGKN
modifications: Alexa Fluor 488 (donor) or 647 (acceptor) maleimide on the engineered G-domain cysteine S308C
B4: cyt-ATL2 H462C (also C59A, C143A, C395N, and C441A) (domain or fragment, human, UniProt Q8NHH9 1-467, looked up)
chain: B3 chain with C308S, H462C
modifications: Cy3 maleimide on the engineered 3HB cysteine H462C
B5: cyt-DATL(1–415) S270C (domain or fragment)
chain: MGGSAVQVINASEEHTFVLNEDALSEVLMRDEVKDRFVCVVSVAGAFRKGKSFLLDFFLRYMYSKYVHHDATDWLGGESDPLEGFSWRGGSERDTTGILMWSDIFLHDYPNGDKIAIILLDTQGAFDSQSTVRDCATVFALSTMLSSVQIYNLSQNIQEDDLQHLQLFTEYGRLALADTGKKPFQRLQFLVRDWSFPYEAEYGALGGDKILKRRLEVSDKQHPELQSLRRHISSCFTEVACFLMPHPGLNVATNPKFDGRLQDITPEFKCSLRSLVPMLLAPDNLVYKEISGQRVRARDLIQYFQSYMNIYKGNELPEPKSMLVATAEANHLTAVAAAKELYGQLMEEVCGGTRPYLSTAHLQTEHLRVKDKALFQFAAKRKMGGEEFTEKFRKQLEDDLEEVFTNYQAHNESKN
modifications: Alexa Fluor 488 (donor) or 647 (acceptor) maleimide on the engineered G-domain cysteine S270C
B6: cyt-DATL H410C (domain or fragment)
chain: B5 chain with C270S, H410C
modifications: Cy3 maleimide on the engineered 3HB cysteine H410C

Assays:
FRET or BRET = molecular target: the molecule itself; assay: FRET or BRET
PIFE = molecular target: the molecule itself; assay: PIFE

| Protein | binding result (FRET or BRET) | binding result (PIFE) |
| --- | --- | --- |
| B1 | binds |  |
| B2 |  | binds |
| B3 | binds |  |
| B4 |  | binds |
| B5 | binds |  |
| B6 |  | binds |

Source: paper PMC8624677 (The Journal of Cell Biology, 2021)
